The text below walks through data of US7485618B2, “FGF-5 supported and binding peptides” (Genencor International, Inc., priority 2003, dated 2009).

In this test the target is T1, FGF-5 (Homo sapiens, UniProt P12034).
T1 construct: host or cells: FGF-5 added exogenously to NR6R-3T3 murine fibroblasts
T1 sequence (P12034 21-268): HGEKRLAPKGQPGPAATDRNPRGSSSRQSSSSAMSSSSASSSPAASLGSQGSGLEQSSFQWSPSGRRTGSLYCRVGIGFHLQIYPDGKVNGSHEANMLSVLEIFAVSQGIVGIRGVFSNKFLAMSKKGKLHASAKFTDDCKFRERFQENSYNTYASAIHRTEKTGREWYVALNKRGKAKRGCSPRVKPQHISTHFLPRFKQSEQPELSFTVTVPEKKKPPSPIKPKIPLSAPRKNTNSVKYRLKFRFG
The experiment in a line: BLA binding assay on FGF-5 coated plates, nitrocefin readout. Conditions: purified peptide-BLA fusions at 0.1 nM, bound to FGF-5. How it is done:
This Example describes secondary screening methods used to analyze FGF-5 binding npeptides. Individual clones were picked and grown up in 5 ml LB+5 ppm CMP overnight at 37° C. The cell pastes were then treated with 125μ of B-PER reagent (Pierce) for 30 min with slow mixing. COSTAR plates (96-well) were coated with 0.1 μg (100 μl of 1 μg/ml) FGF-5, carrier-free (R&D Systems #237-F5/CF, Lot #GQ18304A) with gentle rocking at 4° C. overnight, followed by blocking with Superblock blocking buffer (Pierce) for several hours at room temperature. Then, 100 μl B-Per treated supernatant from individual clones from pGV02-L were added to the FGF-5 coated plates. After one hour, plates were washed six times with PBS, 0.05% TWEEN®-20 and 200 μl of nitrocefin assay buffer containing 0.1 mg/ml nitrocefin (Oxoid) was added to measure residual bound beta-lactamase activity, using Abs490/min. Control wells contained pCB04 (See, FIG. 1C) beta-lactamase as a control. […] These clones were sequenced, and the results are provided in Table 1, where the first column is the name of the peptide, the second column is the nucleotide sequence and the third column is the amino acid sequence of the peptide:
Cell pastes were harvested from the 200 ml cell cultures described in Example 6, by centrifugation at 3,000×g for 10 min. The pastes were then treated with 25 ml of B-PER reagent (Pierce) for 40 min with slow mixing. The extract was separated by centrifugation at 20,000 g for 20 min. BLA activity of all liquid fractions was assayed using nitrocefin, and the concentration of fusion proteins in each fraction was calculated assuming the same specific activity as the WT enzyme. Fusion proteins were purified by IMAC chromatography (See, FIG. 4). The imidazole-eluted BLA-active fractions were pooled and the purity was found better than 95% as checked by SDS-PAGE. (See, FIG. 5).
The binding (BLA assay) was repeated using different peptide concentrations to see a dose response. To verify specific binding, the assay was also done using an irrelevant target. The results are shown in FIG. 6 and in Table 2, below.
In the case of “CEEIWTMLC (synthesized FGF-5 binding peptide) [1A6, tested as BLA and BBI/BCE fusions]”, the “Percent Bound at 0.1 nM” value worked out at 8%. In the case of “CHYLLTNYC (synthesized FGF-5 binding peptide) [2H9, tested as BLA fusion]”, the “Percent Bound at 0.1 nM” value stood at 5%. For “CLTVLWTTC (synthesized FGF-5 binding peptide) [2E2, tested as BLA and BBI/BCE fusions]” the value was 7%; for “CRIHLAHKC (synthesized FGF-5 binding peptide) [2H10, tested as BLA fusion]”, 8%.
